# System: CyCAST TnsD (with TnsAB, TnsC) (Cyanothece sp. PCC 7425)
# Assay: cell_activity
# Settings: without TniQ; 0.0006% with TniQ; E. coli
substance,measurement,value
pTarget with tRNA-Leu,activity,0.008 % insertion
